Experimental data taken from PMC4463457.

B1: VSV-SNAP-hD3 (VSV- and SNAP-tagged human dopamine D3 receptor) [modified: SNAP tag covalently labelled with SNAP-Lumi4-Tb or SNAP-Red; SNAP tag covalently labelled with SNAP-Lumi4-Tb or SNAP-Red] [human] / … (parent)
chain: MASLSQLSGHLNYTCGAENSTGASQARPHAYYALSYCALILAIVFGNGLVCMAVLKERALQTTTNYLVVSLAVADLLVATLVMPWVVYLEVTGGVWNFSRICCDVFVTLDVMMCTASILNLCAISIDRYTAVVMPVHYQHGTGQSSCRRVALMITAVWVLAFAVSCPLLFGFNTTGDPTVCSISNPDFVIYSSVVSFYLPFGVTVLVYARIYVVLKQRRRKRILTRQNSQCNSVRPGFPQQTLSPDPAHLELKRYYSICQDTALGGPGFQERGGELKREEKTRNSLSPTIAPKLSLEVRKLSNGRLSTSLKLGPLQPRGVPLREKKATQMVAIVLGAFIVCWLPFFLTHVLNTHCQTCHVSPELYSATTWLGYVNSALNPVIYTTFNIEFRKAFLKILSC

Variants of: B1
Assay: htrFRET
Conditions: with itself; HEK293T cells transfected with increasing amounts of construct; read off a plot

Variant | ratio to parent
MASLSQLSGHLNYTCGAENSTGASQARPHAYYALSYCALILAIVFGNGLVCMAVLKERALQTTTNYLVVSLAVADLLVATLVMPWVVYLEVTGGVWNFSRICCDVFVTLDVMMCTASILNLCAISIDRYTAVVMPVHYQHGTGQSSCRRVALMITAVWVLAFAVSCPLLFGFNTTGDPTVCSISNPAFVAYSSAVSFYAPFGVTVLVYARIYVVLKQRRRKRILTRQNSQCNSVRPGFPQQTLSPDPAHLELKRYYSICQDTALGGPGFQERGGELKREEKTRNSLSPTIAPKLSLEVRKLSNGRLSTSLKLGPLQPRGVPLREKKATQMVAIVLGAFIVCWLPFFLTHVLNTHCQTCHVSPELYSATTWLGYVNSALNPVIYTTFNIEFRKAFLKILSC [chain 1 D187A I190A V194A L199A] | 0.89
MASLSQLSGHLNYTCGAENSTGASQARPHAYYALSYCALILAIVFGNGLVCMAVLKERALQTTTNYLVVSLAVADLLVATLVMPWVVYLEVTGGVWNFSRICCDVFVTLDVMMCTASILNLCAISIDRYTAVVMPVHYQHGTGQSSCRRVALMITAVWVLAFAVSCPLLFGFNTTGDPTVCSISNPDFVIYSSVVSFYLPFGVTVLVYARIYVVLKQRRRKRILTRQNSQCNSVRPGFPQQTLSPDPAHLELKRYYSICQDTALGGPGFQERGGELKREEKTRNSLSPTIAPKLSLEVRKLSNGRLSTSLKLGPLQPRGVPLREKKATQMVAIVLGAFIVCWLPFFLTHVLNTHCQTCHVSPELYSATTWLGYVNSALNPVIYTTFNIEFRKAAAAILSC [chain 1 F394A L395A K396A] | 0.5
MASLSQLSGHLNYTCGAENSTGASQARPHAAAAAAYCALILAIVFGNGLVCMAVLKERALQTTTNYLVVSLAVADLLVATLVMPWVVYLEVTGGVWNFSRICCDVFVTLDVMMCTASILNLCAISIDRYTAVVMPVHYQHGTGQSSCRRVALMITAVWVLAFAVSCPLLFGFNTTGDPTVCSISNPDFVIYSSVVSFYLPFGVTVLVYARIYVVLKQRRRKRILTRQNSQCNSVRPGFPQQTLSPDPAHLELKRYYSICQDTALGGPGFQERGGELKREEKTRNSLSPTIAPKLSLEVRKLSNGRLSTSLKLGPLQPRGVPLREKKATQMVAIVLGAFIVCWLPFFLTHVLNTHCQTCHVSPELYSATTWLGYVNSALNPVIYTTFNIEFRKAFLKILSC [chain 1 Y31A Y32A L34A S35A] | 1
MASLSQLSGHLNYTCGAENSTGASQARPHAYYALSYCALILAIVFGNGLVCMAVLKERALQTTTNYLVVSLAVADLLVATLVMPWVVYLEVTGGVWNFSRICCDVFVTLDVMMCTASILNLCAISIDRYTAVVMPVHYQHGTGQSSCRRVALMITAVWVLAFAVSCPLLFGFNTTGDPTVCSISNPDFVIYSSVVSFYLPFGVTVLVYAAIAAVLAQRRRKRILTRQNSQCNSVRPGFPQQTLSPDPAHLELKRYYSICQDTALGGPGFQERGGELKREEKTRNSLSPTIAPKLSLEVRKLSNGRLSTSLKLGPLQPRGVPLREKKATQMVAIVLGAFIVCWLPFFLTHVLNTHCQTCHVSPELYSATTWLGYVNSALNPVIYTTFNIEFRKAFLKILSC [chain 1 R210A Y212A V213A K216A] | 0.76
